Results from US20220298218A1 (ANTAG THERAPEUTICS, published 2022).
Read-outs that look alike come from different tables or passages of the source. *1 amine or outer side, *2 acyl side, *3 side chain or, on linkers, in order; H or OH if unused. Where no end group is shown, it is not given here. Side-chain parts run from the residue outwards. The star is where a group is joined. C18 diacid = O=C(O)CCCCCCCCCCCCCCCCC(=O)*; C16 diacid = O=C(O)CCCCCCCCCCCCCCC(=O)*; γGlu = O=C(O)[C@H](CCC(=O)[*:2])N[*:1]; AEEA = NCCOCCOCC(=O)O

What was measured:
human GIP receptor [1] = biological target: T1, human GIP receptor (human, UniProt P48546 22-466); test: cell-based or functional assay
T1 sequence (looked up): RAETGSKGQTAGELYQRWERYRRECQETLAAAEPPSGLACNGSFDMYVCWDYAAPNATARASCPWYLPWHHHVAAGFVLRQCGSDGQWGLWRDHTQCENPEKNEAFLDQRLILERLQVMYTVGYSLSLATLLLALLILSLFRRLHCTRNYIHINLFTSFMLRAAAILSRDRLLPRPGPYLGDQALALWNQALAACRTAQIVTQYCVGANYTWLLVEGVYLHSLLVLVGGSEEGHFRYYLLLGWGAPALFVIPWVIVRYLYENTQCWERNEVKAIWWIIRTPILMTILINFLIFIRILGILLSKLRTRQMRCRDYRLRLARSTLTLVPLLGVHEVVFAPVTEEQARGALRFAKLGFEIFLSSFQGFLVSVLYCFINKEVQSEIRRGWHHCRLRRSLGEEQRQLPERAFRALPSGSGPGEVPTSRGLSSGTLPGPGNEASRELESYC

human GIP receptor [2] = biological target: T1, human GIP receptor; test: cell-based or functional assay; remark: listed apart in the source

Row | Binder | cAMP agonism % Emax (human GIP receptor [1]) | cAMP antagonism (human GIP receptor [1]) | cAMP antagonism % inhib (human GIP receptor [1]) | cAMP antagonism pIC50 (human GIP receptor [1]) | cAMP agonism Emax (human GIP receptor [2]) | cAMP antagonism (human GIP receptor [2]) | cAMP antagonism % inhib (human GIP receptor [2]) | cAMP antagonism log (human GIP receptor [2])
1 | SGTFISDYSIAMDKIK([AEEA-AEEA-AEEA-γGlu-C18 diacid])QQDFVNWLLAQKGKKNDW-OH (N-terminus assumed; SMILES CC[C@H](C)[C@H](NC(=O)[C@H](CO)NC(=O)[C@H](Cc1ccc(O)cc1)NC(=O)[C@H](CC(=O)O)NC(=O)[C@H](CO)NC(=O)[C@@H](NC(=O)[C@H](Cc1ccccc1)NC(=O)[C@@H](NC(=O)CNC(=O)[C@@H](N)CO)[C@@H](C)O)[C@@H](C)CC)C(=O)N[C@@H](C)C(=O)N[C@@H](CCSC)C(=O)N[C@@H](CC(=O)O)C(=O)N[C@@H](CCCCN)C(=O)N[C@H](C(=O)N[C@@H](CCCCNC(=O)COCCOCCNC(=O)COCCOCCNC(=O)COCCOCCNC(=O)CC[C@H](NC(=O)CCCCCCCCCCCCCCCCC(=O)O)C(=O)O)C(=O)N[C@@H](CCC(N)=O)C(=O)N[C@@H](CCC(N)=O)C(=O)N[C@@H](CC(=O)O)C(=O)N[C@@H](Cc1ccccc1)C(=O)N[C@H](C(=O)N[C@@H](CC(N)=O)C(=O)N[C@@H](Cc1c[nH]c2ccccc12)C(=O)N[C@@H](CC(C)C)C(=O)N[C@@H](CC(C)C)C(=O)N[C@@H](C)C(=O)N[C@@H](CCC(N)=O)C(=O)N[C@@H](CCCCN)C(=O)NCC(=O)N[C@@H](CCCCN)C(=O)N[C@@H](CCCCN)C(=O)N[C@@H](CC(N)=O)C(=O)N[C@@H](CC(=O)O)C(=O)N[C@@H](Cc1c[nH]c2ccccc12)C(=O)O)C(C)C)[C@@H](C)CC) [AT422] | 0% | 3.69 nM | 94% | 8.4 | 6 | 3 nM | 90% | -8.5 log M
2 | SGTFISDYSIAMDRIK([AEEA-AEEA-γGlu-C16 diacid])QQDFVNWLLAQRGRRNDW-OH (N-terminus assumed; SMILES CC[C@H](C)[C@H](NC(=O)[C@H](CO)NC(=O)[C@H](Cc1ccc(O)cc1)NC(=O)[C@H](CC(=O)O)NC(=O)[C@H](CO)NC(=O)[C@@H](NC(=O)[C@H](Cc1ccccc1)NC(=O)[C@@H](NC(=O)CNC(=O)[C@@H](N)CO)[C@@H](C)O)[C@@H](C)CC)C(=O)N[C@@H](C)C(=O)N[C@@H](CCSC)C(=O)N[C@@H](CC(=O)O)C(=O)N[C@@H](CCCNC(=N)N)C(=O)N[C@H](C(=O)N[C@@H](CCCCNC(=O)COCCOCCNC(=O)COCCOCCNC(=O)CC[C@H](NC(=O)CCCCCCCCCCCCCCC(=O)O)C(=O)O)C(=O)N[C@@H](CCC(N)=O)C(=O)N[C@@H](CCC(N)=O)C(=O)N[C@@H](CC(=O)O)C(=O)N[C@@H](Cc1ccccc1)C(=O)N[C@H](C(=O)N[C@@H](CC(N)=O)C(=O)N[C@@H](Cc1c[nH]c2ccccc12)C(=O)N[C@@H](CC(C)C)C(=O)N[C@@H](CC(C)C)C(=O)N[C@@H](C)C(=O)N[C@@H](CCC(N)=O)C(=O)N[C@@H](CCCNC(=N)N)C(=O)NCC(=O)N[C@@H](CCCNC(=N)N)C(=O)N[C@@H](CCCNC(=N)N)C(=O)N[C@@H](CC(N)=O)C(=O)N[C@@H](CC(=O)O)C(=O)N[C@@H](Cc1c[nH]c2ccccc12)C(=O)O)C(C)C)[C@@H](C)CC) [AT423] | 0% | 79.4 nM | 71% | 7.1 | – | 6 nM | 95% | -8.2 log M
